In patent US20220185894A1 (F STAR THERAPEUTICS, published 2022):
“And” between values parts separate entries of the source, which are not always exact repeats. Identical values can stand only once.

Key:
[1] = target: T1, human PD-L1 Fc (R&D Systems, 156-B7) (human, UniProt Q9NZQ7 19-239); assay: SPR, BIAcore T200; mAb2 captured on Protein L, PD-L1 Fc injected
T1 construct: Bought protein; not shown: Fc tag of the bought fusion protein

[2] = target: T2, human PD-L1 expressed on cells (human, UniProt Q9NZQ7 19-290); assay: flow cytometry on HEK cells expressing human PD-L1
T2 construct: also called hPD-L1; human PD-L1 HEK
Description: (§1) HEK cells expressing human or cynomolgus PD-L1 grown in DMEM (Life Technologies, 61965-026) containing 10% FBS (Life Technologies, 10270-1-6), 100 μg/ml Hygromycin B (Melford Laboratories Ltd, Z2475), 15 μg/ml Blasticidin (Melford Laboratories Ltd, B1105) and 1 μg/ml Doxycyclin (Sigma, D9891) were detached from tissue culture flasks using cell dissociation buffer (Life Technologies, 13151-014) and seeded in V-bottom 96-well plates (Costar, 3897) at 2×10⁵ cells/well. The plates were centrifuged at 1500 rpm for 3 min at 4° C. to pellet the cells. A dilution series of the mAb² (or control mAb) was incubated with the cells in a 100 μl volume for 1 h at 4° C. The plates were washed and secondary antibody (Anti-human Fc-488, Jackson ImmunoResearch, 109-546-098) was diluted 1:1000 in PBS and 100 μl was added to the cells for 30 min at 4° C. (plates were kept in the dark). The plates were washed then cells were resuspended in 100 μl PBS containing 1 μg/ml DAPI (Biotium, 40043). The plates were read using Canto II flow cytometer (BD Bioscience). Dead cells were excluded and the fluorescence in the FITC channel (488 nm/530/30) was measured. The data was fit using log (agonist) vs response in GraphPad Prism Software. The plates were read on a BD FACSCanto II cytometer (BD Biosciences) and the data analysed using FlowJo.

[3] = target: T2, human PD-L1 expressed on cells; assay: cell-based or functional assay
[4] = target: T3, cynomolgus LAG-3 expressed on cells (cynomolgus monkey, UniProt P18627 24-525 (human entry)); assay: flow cytometry on HEK cells expressing cynomolgus LAG-3
T3 construct: also called cLAG-3; cyno LAG-3
T3 chain: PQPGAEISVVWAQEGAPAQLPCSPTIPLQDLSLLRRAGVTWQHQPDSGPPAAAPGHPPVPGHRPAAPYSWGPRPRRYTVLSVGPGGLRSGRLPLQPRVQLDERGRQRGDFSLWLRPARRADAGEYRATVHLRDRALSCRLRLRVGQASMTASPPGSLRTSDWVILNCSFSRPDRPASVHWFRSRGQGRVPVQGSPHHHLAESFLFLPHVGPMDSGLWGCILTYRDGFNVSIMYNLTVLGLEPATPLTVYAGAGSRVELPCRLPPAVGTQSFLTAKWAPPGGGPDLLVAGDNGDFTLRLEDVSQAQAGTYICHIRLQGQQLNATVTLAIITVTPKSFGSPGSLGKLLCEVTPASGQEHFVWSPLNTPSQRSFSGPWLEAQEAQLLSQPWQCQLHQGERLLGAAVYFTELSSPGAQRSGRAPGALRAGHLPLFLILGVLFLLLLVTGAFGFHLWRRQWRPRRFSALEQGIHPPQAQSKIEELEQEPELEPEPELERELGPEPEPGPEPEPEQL
Description: as §1, with “The affinity of the mAb² (all containing the LALA mutation) for cell expressed human or cynomolgus LAG-3 was determined using flow cytometry. HEK cells” for “HEK cells”, “or cynomolgus LAG-3 grown in” for “or cynomolgus PD-L1 grown in”, “control mAb) were incubated with” for “control mAb) was incubated with”, “were washed and then cells” for “were washed then cells”

T2 sequence (Q9NZQ7 19-290 limits assumed): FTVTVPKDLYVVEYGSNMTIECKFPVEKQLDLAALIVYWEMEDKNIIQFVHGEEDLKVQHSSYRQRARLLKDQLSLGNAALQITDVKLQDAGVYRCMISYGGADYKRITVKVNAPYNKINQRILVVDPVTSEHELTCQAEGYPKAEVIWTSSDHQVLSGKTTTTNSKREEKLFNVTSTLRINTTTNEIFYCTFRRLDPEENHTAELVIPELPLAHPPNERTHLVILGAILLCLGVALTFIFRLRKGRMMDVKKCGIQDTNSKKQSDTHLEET
T1 sequence (Q9NZQ7 19-239 limits assumed): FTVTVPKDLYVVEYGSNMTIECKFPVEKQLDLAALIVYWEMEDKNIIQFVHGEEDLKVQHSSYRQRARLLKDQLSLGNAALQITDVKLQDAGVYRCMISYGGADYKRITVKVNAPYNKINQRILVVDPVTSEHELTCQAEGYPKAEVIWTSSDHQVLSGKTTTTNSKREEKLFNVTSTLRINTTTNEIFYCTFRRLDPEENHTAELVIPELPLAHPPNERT

B1: anti-human LAG-3/PD-L1 mAb2 FS18-7-9/84G09 with LALA mutation (bispecific antibody, human IgG1, kappa, L234A L235A)
heavy: EVQLVESGGGLVQPGRSLRLSCAASGFTFDDYAMHWVRQTPGKGLEWVSGISWKSNIIGYADSVKGRFTISRDNAKNSLYLQMNSLRAEDTALYYCARDITGSGSYGWFDPWGQGTLVTVSSASTKGPSVFPLAPSSKSTSGGTAALGCLVKDYFPEPVTVSWNSGALTSGVHTFPAVLQSSGLYSLSSVVTVPSSSLGTQTYICNVNHKPSNTKVDKKVEPKSCDKTHTCPPCPAPEAAGGPSVFLFPPKPKDTLMISRTPEVTCVVVDVSHEDPEVKFNWYVDGVEVHNAKTKPREEQYNSTYRVVSVLTVLHQDWLNGKEYKCKVSNKALPAPIEKTISKAKGQPREPQVYTLPPSWDEPWGEDVSLTCLVKGFYPSDIAVEWESNGQPENNYKTTPPVLDSDGSFFLYSKLTVPYDRWVWPDEFSCSVMHEALHNHYTQKSLSLSPG
light: DIQMTQSPSSLSASVGDRVTITCRASQSISSYLNWYQQKPGKAPKPLIYVASSLQSGVPSSFSGSGSGTDFTLTISSLQPEDFATYYCQQSYSNPITFGQGTRLEIKRTVAAPSVFIFPPSDEQLKSGTASVVCLLNNFYPREAKVQWKVDNALQSGNSQESVTEQDSKDSTYSLSSTLTLSKADYEKHKVYACEVTHQGLSSPVTKSFNRGEC
notes: also called FS18-7-09/84G09LALA; FS18-7-9/84G09 LALA
- Kd [1]: 1 nM
- koff [1]: 0.00039 s⁻¹
- kon [1]: 380000 M⁻¹ s⁻¹
- EC50 [2]: 3.19 nM and 3.51 nM
- Maximal IL2 release calculated as % ctrl (84G09 + 25F7) [3]: 65.9%
- EC50 [4]: 29.9 nM
- fold better binding (EC50) than control antibody 25F7 [4]: ≥ 2 fold
